Results taken from paper PMC4484057, “Daple is a novel non-receptor GEF required for trimeric G protein activation in Wnt signaling” (eLife, 2015).
Values belong to the binder of their own block, whether it stands above or below them.

B1: His-Daple-CT (aa 1650–2028) (domain or fragment, human, UniProt Q9P219-1 1650-2028, looked up)
chain: GTAPPYVGVRPCSASPSSEMVTLEEFLEESNRSSPTHDTPSCRDDLLSDYFRKASDPPAIGGQPGPPAKKEGAKMPTNFVAPTVKMAAPTSEGRPLKPGQYVKPNFRLTEAEAPPSVAPRQAQPPQSLSLGRPRQAPVPPASHAPASRSASLSRAFSLASADLLRASGPEACKQESPQKLGAPEALGGRETGSHTLQSPAPPSSHSLARERTPLVGKAGSSCQGPGPRSRPLDTRRFSLAPPKEERLAPLHQSATAPAIATAGAGAAAAGSGSNSQLLHFSPAAAPAARTKPKAPPRSGEVATITPVRAGLSLSEGDGVPGQGCSEGLPAKSPGRSPDLAPHLGRALEDCSRGSVSKSSPASPEPGGDPQTVWYEYGCV
notes: Cloned from myc-Daple pcDNA 3.1 into pET28b between NdeI/EcoRI; also called His-Daple-CT WT; Daple-CT-WT; source: E. coli BL21 (DE3), purified (HisPur Cobalt Resin)
B6: His-Gαi3 (natural protein, rat, UniProt P08753 1-354, looked up)
chain: MGCTLSAEDKAAVERSKMIDRNLREDGEKAAKEVKLLLLGAGESGKSTIVKQMKIIHEDGYSEDECKQYKVVVYSNTIQSIIAIIRAMGRLKIDFGEAARADDARQLFVLAGSAEEGVMTSELAGVIKRLWRDGGVQACFSRSREYQLNDSASYYLNDLDRISQTNYIPTQQDVLRTRVKTTGIVETHFTFKELYFKMFDVGGQRSERKKWIHCFEGVTAIIFCVALSDYDLVLAEDEEMNRMHESMKLFDSICNNKWFTDTSIILFLNKKDLFEEKIKRSPLTICYPEYTGSNTYEEAAAYIQCQFEDLNRRKDTKEVYTHFTCATDTKNVQFVFDAVTDVIIKNNLKECGLY
notes: also called His-Gαi3-GDP; recombinant His-Gαi3; source: E. coli BL21 (DE3), purified (HisPur Cobalt Resin)

Legend:
[1] = target: B6; test: cell-based or functional assay
[2] = target: T1, GST-Gαi3 (rat, UniProt P08753 1-354); test: pull-down; Gβγ displacement: GST-Gαi3·Gβγ preformed on glutathione-agarose beads (∼0.4 µM GST-Gαi3), 0.05–1 µM His-Daple-CT, 5 hr at 4°C, GDP; bound Gβγ by immunoblot fitted to a single-site competition curve; settings: both partners purified
T1 construct: Gαi3, rat, in pGEX-4T-1; Loaded with GDP, GDP + AlF4- or GTPγS as the assay says; also called GST-Gαi3 WT; source: E. coli BL21 (DE3), purified (glutathione-Sepharose 4B)

[3] = target: B1; test: pull-down; GST-Gα protein (5 µg) preloaded with GDP (inactive) on glutathione beads; purified His-Daple-CT (3 µg); 4 hr at 4°C; 50 mM Tris-HCl pH 7.4, 100 mM NaCl, 0.4% NP-40, 10 mM MgCl2, 5 mM EDTA, 30 µM GDP, 2 mM DTT; immunoblot; settings: both partners purified
[4] = target: B6; test: pull-down; GST-Daple-CT or GST-GIV-CT immobilised on glutathione-agarose beads; 0.01–3 µM purified His-Gαi3 (GDP-loaded); band intensities of immunoblots fitted to a single-site binding hyperbola; four independent experiments; settings: both partners purified
[5] = target: T2, GST-Daple-CT (human, UniProt Q9P219-1 1650-2028); test: as above; settings: both partners purified
T2 construct: Daple (CCDC88C), human, C-terminal region; pGEX-4T construct; also called GST-Daple-CT WT; source: E. coli BL21 (DE3), purified (glutathione-Sepharose 4B)
T2 sequence (looked up): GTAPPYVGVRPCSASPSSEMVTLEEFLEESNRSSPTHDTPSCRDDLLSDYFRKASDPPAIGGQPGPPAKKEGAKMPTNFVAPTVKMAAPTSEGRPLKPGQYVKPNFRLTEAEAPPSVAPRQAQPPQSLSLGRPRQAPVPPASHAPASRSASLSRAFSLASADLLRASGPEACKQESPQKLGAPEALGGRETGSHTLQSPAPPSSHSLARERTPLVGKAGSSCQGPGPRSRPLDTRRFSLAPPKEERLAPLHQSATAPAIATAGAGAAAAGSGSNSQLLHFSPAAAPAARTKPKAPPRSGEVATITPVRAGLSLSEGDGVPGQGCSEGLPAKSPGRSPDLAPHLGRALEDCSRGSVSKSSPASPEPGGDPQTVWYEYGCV

Binder: B1
- steady-state GTPase activity of His-Gαi3 with 2 µM His-Daple-CT, over the basal activity [1]: ~3 fold
- IC50 [2]: 160 nM

- binding result [3]: binds
B2: GST-Gαi3 W258F (natural protein, rat, UniProt P08753 1-354, looked up)
chain: MGCTLSAEDKAAVERSKMIDRNLREDGEKAAKEVKLLLLGAGESGKSTIVKQMKIIHEDGYSEDECKQYKVVVYSNTIQSIIAIIRAMGRLKIDFGEAARADDARQLFVLAGSAEEGVMTSELAGVIKRLWRDGGVQACFSRSREYQLNDSASYYLNDLDRISQTNYIPTQQDVLRTRVKTTGIVETHFTFKELYFKMFDVGGQRSERKKWIHCFEGVTAIIFCVALSDYDLVLAEDEEMNRMHESMKLFDSICNNKFFTDTSIILFLNKKDLFEEKIKRSPLTICYPEYTGSNTYEEAAAYIQCQFEDLNRRKDTKEVYTHFTCATDTKNVQFVFDAVTDVIIKNNLKECGLY
notes: Gαi3, rat, W258F; source: E. coli BL21 (DE3), purified (glutathione-Sepharose 4B)

- binding result [3]: binds
B3: GST-Gαi3 K248M (natural protein, rat, UniProt P08753 1-354, looked up)
chain: MGCTLSAEDKAAVERSKMIDRNLREDGEKAAKEVKLLLLGAGESGKSTIVKQMKIIHEDGYSEDECKQYKVVVYSNTIQSIIAIIRAMGRLKIDFGEAARADDARQLFVLAGSAEEGVMTSELAGVIKRLWRDGGVQACFSRSREYQLNDSASYYLNDLDRISQTNYIPTQQDVLRTRVKTTGIVETHFTFKELYFKMFDVGGQRSERKKWIHCFEGVTAIIFCVALSDYDLVLAEDEEMNRMHESMMLFDSICNNKWFTDTSIILFLNKKDLFEEKIKRSPLTICYPEYTGSNTYEEAAAYIQCQFEDLNRRKDTKEVYTHFTCATDTKNVQFVFDAVTDVIIKNNLKECGLY
notes: Gαi3, rat, K248M; source: E. coli BL21 (DE3), purified (glutathione-Sepharose 4B)

- binding result [3]: binds
B4: GST-Gαi2 (natural protein, rat, UniProt P04897 1-355, looked up)
chain: MGCTVSAEDKAAAERSKMIDKNLREDGEKAAREVKLLLLGAGESGKSTIVKQMKIIHEDGYSEEECRQYRAVVYSNTIQSIMAIVKAMGNLQIDFADPQRADDARQLFALSCAAEEQGMLPEDLSGVIRRLWADHGVQACFGRSREYQLNDSAAYYLNDLERIAQSDYIPTQQDVLRTRVKTTGIVETHFTFKDLHFKMFDVGGQRSERKKWIHCFEGVTAIIFCVALSAYDLVLAEDEEMNRMHESMKLFDSICNNKWFTDTSIILFLNKKDLFEEKITQSPLTICFPEYTGANKYDEAASYIQSKFEDLNKRKDTKEIYTHFTCATDTKNVQFVFDAVTDVIIKNNLKDCGLF
notes: Gαi2, rat, in pGEX-4T-1; also called GST-fused Gαi2; source: E. coli BL21 (DE3), purified (glutathione-Sepharose 4B)

- Kd [4]: 240 nM
B5: GST-GIV-CT (aa 1671–1755) (domain or fragment, UniProt Q3V6T2 1671-1755, looked up)
chain: IKTGSPGSEVVTLQQFLEESNKLTSVQIKSSSQENLLDEVMKSLSVSSDFLGKDKPVSCGLARSVSGKTPGDFYDRRTTKPEFLR
notes: GIV (CCDC88A, Girdin), aa 1671–1755, holds the GBA motif; also called GST-GIV CT 1671–1755 aa; source: E. coli BL21 (DE3), purified (glutathione-Sepharose 4B)

Binder: B6
- Kd [5]: 110 nM
